Values of other authors, collected in patent publication US7718413B2, “Glycosylation variants of BACE” (Elan Pharmaceuticals, Inc., priority 2003, dated 2010).
Non-standard residues stand in square brackets, D forms with d. No end group written: not given here. Sta = CC(C)C[C@H](N)[C@@H](O)CC(=O)O

Target: β-secretase (Homo sapiens, UniProt P56817)
Conditions: previous studies

Sequence of β-secretase (P56817 46-501): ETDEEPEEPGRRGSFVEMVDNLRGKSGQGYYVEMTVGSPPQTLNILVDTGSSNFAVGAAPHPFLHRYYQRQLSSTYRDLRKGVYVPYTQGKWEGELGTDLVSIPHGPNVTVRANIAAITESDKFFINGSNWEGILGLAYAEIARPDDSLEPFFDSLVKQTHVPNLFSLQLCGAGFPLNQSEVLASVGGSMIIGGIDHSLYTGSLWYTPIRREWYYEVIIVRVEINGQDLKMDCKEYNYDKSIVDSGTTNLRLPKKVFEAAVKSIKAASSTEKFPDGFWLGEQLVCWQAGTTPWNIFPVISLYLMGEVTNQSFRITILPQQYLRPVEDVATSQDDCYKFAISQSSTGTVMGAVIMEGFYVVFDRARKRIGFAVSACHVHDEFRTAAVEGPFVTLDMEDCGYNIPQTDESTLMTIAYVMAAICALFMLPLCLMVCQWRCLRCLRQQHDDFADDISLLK

Substance: KTEEISEVN[sta]VAEF (KTEEISEVN[Sta]VAEF) [P10-P4′staD→V]
- inhibitor of the enzyme (potency in words): reasonably potent inhibitor
